Laboratory results reported in article PMC10390531, “Structural insights into ligand recognition and subtype selectivity of the human melanocortin-3 and melanocortin-5 receptors” (Cell Discovery, 2023).
Entries after “also recorded” stand apart in the source; their conditions may differ.

Experiments:
MC5R = assay: Effect of divalent ions on cAMP accumulation, MC5R; assay type: cell-based, human
Method: (§1) For assessing the effect of divalent ions on cAMP signaling, HEK293T cells were digested with 0.02% (w/v) EDTA and washed three times with calcium/magnesium-free HBSS buffer. Then the cells were resuspended and stimulated with different concentrations of ligands in Ca^2+-free stimulation buffer (the aforementioned stimulation buffer supplemented with 1 mM EGTA), or with additional 2 mM divalent ions in Ca^2+-free stimulation buffer ([divalent ions] = ~1 mM)[38]. The rest of steps were essentially the same as described above.

MC3R = assay: Effect of divalent ions on cAMP accumulation, MC3R; assay type: cell-based, human
Method: as §1

[1] = target: wild-type MC5R on cells (human) (UniProt P33032)
Chain of wild-type MC5R on cells (human) (P33032 whole entry): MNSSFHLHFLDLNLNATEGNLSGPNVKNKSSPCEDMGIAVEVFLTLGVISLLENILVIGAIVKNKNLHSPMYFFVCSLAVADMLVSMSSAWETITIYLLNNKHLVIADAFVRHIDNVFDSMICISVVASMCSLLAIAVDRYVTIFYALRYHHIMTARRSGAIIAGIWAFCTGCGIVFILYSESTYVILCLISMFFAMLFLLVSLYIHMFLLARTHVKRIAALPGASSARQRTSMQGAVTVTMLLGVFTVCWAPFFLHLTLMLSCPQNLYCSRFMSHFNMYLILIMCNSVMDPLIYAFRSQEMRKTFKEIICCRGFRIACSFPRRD

[2] = target: MC5R mutant V126^3.36A (human) (UniProt P33032)
Chain of MC5R mutant V126^3.36A (human) (P33032 other isoform, or with tags, fused parts or gaps mutant): as the sequence (P33032 whole entry) above, with V126A counted along it

[3] = target: MC5R mutant L99^2.67A (human) (UniProt P33032)
Chain of MC5R mutant L99^2.67A (human) (P33032 other isoform, or with tags, fused parts or gaps mutant): as the sequence (P33032 whole entry) above, with L99A counted along it

[4] = target: MC5R mutant F118^3.28A (human) (UniProt P33032)
Chain of MC5R mutant F118^3.28A (human) (P33032 other isoform, or with tags, fused parts or gaps mutant): as the sequence (P33032 whole entry) above, with F118A counted along it

[5] = target: MC3R mutant L128^3.36A (human) (UniProt P41968)
Chain of MC3R mutant L128^3.36A (human) (P41968 other isoform, or with tags, fused parts or gaps mutant): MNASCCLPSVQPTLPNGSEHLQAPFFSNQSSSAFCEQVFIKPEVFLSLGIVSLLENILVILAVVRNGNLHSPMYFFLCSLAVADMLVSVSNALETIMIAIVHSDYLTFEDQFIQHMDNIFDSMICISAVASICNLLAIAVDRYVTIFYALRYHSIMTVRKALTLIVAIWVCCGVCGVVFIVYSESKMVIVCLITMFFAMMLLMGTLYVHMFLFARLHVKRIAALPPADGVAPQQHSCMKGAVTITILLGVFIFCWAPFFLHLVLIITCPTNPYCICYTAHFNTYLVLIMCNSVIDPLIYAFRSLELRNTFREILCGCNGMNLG

[6] = target: MC5R mutant D115^3.25A (human) (UniProt P33032)
Chain of MC5R mutant D115^3.25A (human) (P33032 other isoform, or with tags, fused parts or gaps mutant): as the sequence (P33032 whole entry) above, with D115A counted along it

[7] = target: MC5R mutant F254^6.51A (human) (UniProt P33032)
Chain of MC5R mutant F254^6.51A (human) (P33032 other isoform, or with tags, fused parts or gaps mutant): as the sequence (P33032 whole entry) above, with F254A counted along it

[8] = target: MC5R mutant V126L (human) (UniProt P33032)
Chain of MC5R mutant V126L (human) (P33032 whole entry V126L): as the sequence (P33032 whole entry) above, with V126L counted along it

[9] = target: MC3R mutant L128^3.36V (human) (UniProt P41968)
MC2R = assay: Effect of divalent ions on cAMP accumulation, MC2R; assay type: cell-based; settings: 1 mM Ca^2+ vs divalent ion-free background, HEK293T
Method: as §1

wild-type MC2R on cells = wild-type MC2R on cells (UniProt Q01718)
Chain of wild-type MC2R on cells (Q01718 whole entry): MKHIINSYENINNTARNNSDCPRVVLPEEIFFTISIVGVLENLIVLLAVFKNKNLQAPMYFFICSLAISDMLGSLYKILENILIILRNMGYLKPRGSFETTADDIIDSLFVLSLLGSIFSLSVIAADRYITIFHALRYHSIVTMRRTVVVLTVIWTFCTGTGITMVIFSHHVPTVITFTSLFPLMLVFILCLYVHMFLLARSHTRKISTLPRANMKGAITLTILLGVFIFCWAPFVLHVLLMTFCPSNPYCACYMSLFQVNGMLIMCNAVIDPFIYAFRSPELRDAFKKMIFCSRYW

[10] = target: MC5R mutant F254^6.51A (human) (UniProt P33032); remark: listed apart in the source
[11] = target: MC5R mutant D119^3.29A (human) (UniProt P33032)
[12] = target: MC5R mutant D115^3.25A (human) (UniProt P33032); remark: listed apart in the source
[13] = target: MC3R mutant F45^1.39A (human) (UniProt P41968)
Chain of MC3R mutant F45^1.39A (human) (P41968 other isoform, or with tags, fused parts or gaps mutant): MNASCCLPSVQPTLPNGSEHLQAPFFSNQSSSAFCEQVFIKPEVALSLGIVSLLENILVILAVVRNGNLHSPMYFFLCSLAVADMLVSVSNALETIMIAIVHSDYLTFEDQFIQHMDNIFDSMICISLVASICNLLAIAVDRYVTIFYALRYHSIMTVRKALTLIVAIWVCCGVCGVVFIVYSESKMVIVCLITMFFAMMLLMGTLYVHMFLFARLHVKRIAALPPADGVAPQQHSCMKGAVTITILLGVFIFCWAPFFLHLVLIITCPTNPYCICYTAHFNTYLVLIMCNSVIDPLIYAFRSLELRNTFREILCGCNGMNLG

[14] = target: MC3R mutant H261^6.54A (human) (UniProt P41968)
Chain of MC3R mutant H261^6.54A (human) (P41968 other isoform, or with tags, fused parts or gaps mutant): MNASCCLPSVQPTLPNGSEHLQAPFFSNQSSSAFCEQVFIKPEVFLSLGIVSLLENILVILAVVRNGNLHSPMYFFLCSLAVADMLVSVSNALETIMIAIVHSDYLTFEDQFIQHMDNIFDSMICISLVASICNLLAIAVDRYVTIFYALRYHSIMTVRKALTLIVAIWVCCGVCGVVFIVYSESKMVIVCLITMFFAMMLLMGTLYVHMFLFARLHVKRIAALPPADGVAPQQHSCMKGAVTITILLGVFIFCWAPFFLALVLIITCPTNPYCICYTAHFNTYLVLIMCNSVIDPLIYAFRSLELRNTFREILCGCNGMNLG

[15] = target: MC3R mutant F258^6.51A (human) (UniProt P41968)
[16] = target: MC3R mutant I180^4.61A (human) (UniProt P41968)
[17] = target: MC3R mutant D121^3.29A (human) (UniProt P41968)
Chain of MC3R mutant D121^3.29A (human) (P41968 other isoform, or with tags, fused parts or gaps mutant): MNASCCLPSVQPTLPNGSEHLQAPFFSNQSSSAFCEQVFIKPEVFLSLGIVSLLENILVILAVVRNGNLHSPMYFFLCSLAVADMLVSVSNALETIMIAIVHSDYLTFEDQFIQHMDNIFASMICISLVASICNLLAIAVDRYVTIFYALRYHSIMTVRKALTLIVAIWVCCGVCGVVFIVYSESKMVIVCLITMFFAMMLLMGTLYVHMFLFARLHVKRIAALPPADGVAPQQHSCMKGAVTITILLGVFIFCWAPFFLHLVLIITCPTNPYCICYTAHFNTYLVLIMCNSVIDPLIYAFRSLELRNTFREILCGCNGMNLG

wild-type MC1R on cells = wild-type MC1R on cells (UniProt Q01726)
[18] = target: wild-type MC3R on cells (human) (UniProt P41968)
[19] = target: MC3R mutant I265^6.58Y (human) (UniProt P41968)
Chain of MC3R mutant I265^6.58Y (human) (P41968 other isoform, or with tags, fused parts or gaps mutant): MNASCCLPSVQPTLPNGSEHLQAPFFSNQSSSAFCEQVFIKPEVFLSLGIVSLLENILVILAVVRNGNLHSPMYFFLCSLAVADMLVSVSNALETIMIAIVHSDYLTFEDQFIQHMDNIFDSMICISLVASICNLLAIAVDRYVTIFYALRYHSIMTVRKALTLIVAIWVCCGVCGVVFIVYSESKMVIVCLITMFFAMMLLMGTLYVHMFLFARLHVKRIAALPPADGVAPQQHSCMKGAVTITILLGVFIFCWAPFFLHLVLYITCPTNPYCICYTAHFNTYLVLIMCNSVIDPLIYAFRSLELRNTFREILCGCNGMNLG

[20] = target: MC3R mutant I265^6.58M (human) (UniProt P41968)
Chain of MC3R mutant I265^6.58M (human) (P41968 other isoform, or with tags, fused parts or gaps mutant): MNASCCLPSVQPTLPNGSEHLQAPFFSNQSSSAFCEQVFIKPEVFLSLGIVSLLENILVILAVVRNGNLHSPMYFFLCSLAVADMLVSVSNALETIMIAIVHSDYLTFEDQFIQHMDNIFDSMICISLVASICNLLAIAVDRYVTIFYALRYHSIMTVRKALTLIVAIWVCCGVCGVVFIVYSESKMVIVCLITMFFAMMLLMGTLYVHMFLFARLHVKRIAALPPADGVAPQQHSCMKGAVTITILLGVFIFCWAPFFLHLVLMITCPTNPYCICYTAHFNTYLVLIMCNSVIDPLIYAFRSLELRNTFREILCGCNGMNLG

[21] = target: MC3R mutant I265^6.58W (human) (UniProt P41968)
Chain of MC3R mutant I265^6.58W (human) (P41968 other isoform, or with tags, fused parts or gaps mutant): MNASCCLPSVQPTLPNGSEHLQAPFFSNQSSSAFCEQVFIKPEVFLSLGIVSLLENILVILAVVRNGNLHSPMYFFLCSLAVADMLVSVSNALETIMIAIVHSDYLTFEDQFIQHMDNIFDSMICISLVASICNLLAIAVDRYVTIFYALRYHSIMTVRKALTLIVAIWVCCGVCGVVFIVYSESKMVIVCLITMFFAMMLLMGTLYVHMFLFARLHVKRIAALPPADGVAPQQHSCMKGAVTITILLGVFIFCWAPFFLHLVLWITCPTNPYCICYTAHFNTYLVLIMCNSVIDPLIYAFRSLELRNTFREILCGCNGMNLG

[22] = target: MC3R mutant F45^1.39A (human) (UniProt P41968); remark: listed apart in the source

In the case of `[Mg+2]` [Mg^2+, magnesium ion], the “effect of Mg^2+ on Gs signaling” value (MC5R; 1 mM Mg^2+) is reported as “neglectable impact; also recorded: little impact” and the “effect of Mg^2+ on Gs signaling” value (MC3R; 1 mM Mg^2+) is reported as “neglectable impact; also recorded: little impact”.
In the case of `[Zn+2]` [Zn^2+, zinc ion], the “effect of Zn^2+ on ligand-induced cAMP response” value (MC5R; 1 mM Zn^2+, α-MSH or PG-901) is reported as “dramatic reduction of cAMP response; also recorded: inhibited the efficacy” and the “effect of Zn^2+ on ligand-induced cAMP response” value (MC3R; 1 mM Zn^2+, γ-MSH) is reported as “dramatic reduction of cAMP response; also recorded: inhibited the efficacy”.
PG-901 (peptide) gave a PG-901-induced cAMP accumulation, HEK293T cells; fold increase of potency with 1 mM Ca2+ against a divalent ion-free background [1] of 230 fold, a PG-901-induced cAMP accumulation, HEK293T cells; fold decrease of potency against WT [2] of 8 fold and a PG-901-induced cAMP accumulation, HEK293T cells; fold reduction against WT [3] of 10 fold. For the same molecule, the PG-901-induced cAMP accumulation, HEK293T cells; fold reduction against WT [4] was 4 fold, the PG-901-induced cAMP response, HEK293T cells; EC50 [5] was 250 nM and the PG-901-induced cAMP accumulation, HEK293T cells; fold reduction against WT [6] was 43 fold. For the same molecule, the PG-901-induced cAMP accumulation, HEK293T cells; fold decrease of potency against WT [7] was 44 fold, the PG-901-induced cAMP responses, HEK293T cells; fold reduction against WT [8] was 16 fold and the PG-901-induced cAMP response, HEK293T cells; EC50 [9] was 32 nM.
“adrenocorticotropic hormone (SYSMEHFRWGKPVGKKRRPVKVYPNGAEDESAEAFPLEF; Corticotropin; UniProt P01189 138-176, looked up) [ACTH]” was tested, and the “increase of potency by Ca^2+” value (MC2R) was 6309 fold.
Molecule adrenocorticotropic hormone (peptide) has an ACTH-induced cAMP accumulation, HEK293T cells; fold increase of potency with 1 mM Ca2+ against a divalent ion-free background (wild-type MC2R on cells) of 6310 fold.
α-MSH (peptide) gave a α-MSH-induced cAMP accumulation, HEK293T cells; fold decrease of potency against WT [10] greater than 100 fold, a α-MSH-induced cAMP accumulation, HEK293T cells; fold reduction against WT [11] of 447 fold and a α-MSH-induced cAMP accumulation, HEK293T cells; fold decrease of potency against WT [12] of 269 fold. For the same molecule, the α-MSH-induced cAMP accumulation, HEK293T cells; fold increase of potency with 1 mM Ca2+ against a divalent ion-free background [1] was 182 fold.
γ-MSH (peptide) showed a γ-MSH-induced cAMP accumulation, HEK293T cells; fold reduction of potency against WT [13] of 126 fold, a γ-MSH-induced cAMP accumulation, HEK293T cells; fold decrease of potency against WT [14] of 32 fold and a γ-MSH-induced cAMP accumulation, HEK293T cells; fold decrease of potency against WT [15] of 30 fold. For the same molecule, the γ-MSH-induced cAMP accumulation, HEK293T cells; fold decrease of potency against WT [16] was 22 fold, the γ-MSH-induced cAMP accumulation, HEK293T cells; fold decrease of potency against WT [17] was 22 fold and the γ-MSH-induced cAMP accumulation, HEK293T cells; fold increase of potency with 1 mM Ca2+ against a divalent ion-free background (wild-type MC1R on cells) was 294 fold. For the same molecule, the γ-MSH-induced cAMP accumulation, HEK293T cells; fold increase of potency with 1 mM Ca2+ against a divalent ion-free background [18] was 407 fold, the γ-MSH-induced cAMP accumulation, HEK293T cells; fold decrease of potency against WT [19] was 4 fold and the γ-MSH-induced cAMP accumulation, HEK293T cells; fold decrease of potency against WT [20] was 3 fold. The γ-MSH-induced cAMP accumulation, HEK293T cells; fold decrease of potency against WT [21] was 18 fold and the fold reduction of binding affinity against the wild type [22] was 48 fold.
